Results taken from patent US20130303726.

System: MBP-SpC33Leu fusion protein

enterokinase
cleavage of the fusion protein, MALDI-MS: No detectable amounts of MBP-linker-SP-C33(Leu) were observed, suggesting that the applied proteolytic reaction conditions result in a quantitative process
